Earlier results as cited in paper PMC8592953.
Where two headings read alike, the source gives them in different places.

How the values were obtained:
[1] = biological target: RAGE (soluble) soluble (Homo sapiens) (UniProt Q15109)
[2] = biological target: RAGE (soluble) soluble (Homo sapiens) (UniProt Q15109); remark: listed apart in the source

UniProt Q15109, sequence (Q15109 23-342): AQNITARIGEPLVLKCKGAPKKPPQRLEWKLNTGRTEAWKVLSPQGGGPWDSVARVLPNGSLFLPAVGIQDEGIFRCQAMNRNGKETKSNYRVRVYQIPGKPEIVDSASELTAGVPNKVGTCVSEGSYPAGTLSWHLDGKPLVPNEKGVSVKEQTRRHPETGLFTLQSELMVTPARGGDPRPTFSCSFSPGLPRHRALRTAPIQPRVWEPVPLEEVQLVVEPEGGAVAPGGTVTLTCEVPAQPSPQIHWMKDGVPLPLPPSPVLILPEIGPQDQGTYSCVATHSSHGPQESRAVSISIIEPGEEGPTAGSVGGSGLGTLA

Row | Substance | Kd [1] [nM] | Kd [2] [nM]
1 | glyoxylic acid-glycated bovine serum albumin (from UniProt P02769) | 100 | 
2 | AGE-modified bovine serum albumin (BSA-AGE) (from UniProt P02769) |  | 1000
